Test results published in PMC11659421, “Structural insights into the enzymatic breakdown of azomycin-derived antibiotics by 2-nitroimdazole hydrolase (NnhA)” (Communications Biology, 2024).
Substitutions are numbered along the chain they refer to. In names and notes the source's numbering stands.

Assays:
O=[N+]([O-])c1ncc[nH]1 = assay: nitrite release, Griess reaction, Michaelis-Menten plot; assay type: biochemical, Mycobacterium sp. JS330; conditions: 25-400 µM 2NI, 25 °C, no metal or cofactor
Description: nitrite release, Griess reaction, Michaelis-Menten plot on NnhA

[1] = molecular target: the molecule itself; assay: crystal structure; crystals in space groups P1 (6 molecules in the asymmetric unit) and H32 (one protomer, hexamer by crystallographic symmetry); grown in polyacrylic acid 5100, MgCl2, HEPES pH 7.2, or PEG 3350 with sodium malonate pH 7.0; data at 100 K
[2] = molecular target: the molecule itself; assay: SEC; Superdex 200 prep column during purification, 20 mM Tris pH 7.5, 50 mM NaCl; molecular weight estimate assumes a globular complex
[3] = 1.1 µM enzyme, soluble variant from directed evolution

NnhA (Mycobacterium sp. JS330; C352A/G14D/K73R/T2I)
Km (O=[N+]([O-])c1ncc[nH]1; 3.3 µM enzyme): 24.5 ± 3.3 µM | kcat (O=[N+]([O-])c1ncc[nH]1; 3.3 µM enzyme): 0.0122 ± 0.000333 s⁻¹ | kcat/Km (O=[N+]([O-])c1ncc[nH]1; 3.3 µM enzyme): 500 M⁻¹ s⁻¹

NnhA (Mycobacterium sp. JS330; G14D/K73R/T2I)
Km (O=[N+]([O-])c1ncc[nH]1; [3]): 109.8 ± 7.6 µM | kcat (O=[N+]([O-])c1ncc[nH]1; [3]): 0.3 ± 0.007 s⁻¹ | kcat/Km (O=[N+]([O-])c1ncc[nH]1; [3]): 2730 M⁻¹ s⁻¹

NnhA (Mycobacterium sp. JS330)
Km (O=[N+]([O-])c1ncc[nH]1; 1.1 µM enzyme): 93.1 ± 14.1 µM | kcat (O=[N+]([O-])c1ncc[nH]1; 1.1 µM enzyme): 0.0212 ± 0.00267 s⁻¹ | kcat/Km (O=[N+]([O-])c1ncc[nH]1; 1.1 µM enzyme): 200 M⁻¹ s⁻¹

B1: soluble NnhA (2-nitroimidazole nitrohydrolase A, T2I-G14D-K73R variant) (enzyme)
chain: MITVDKRPSSRGYDDWRLSDIPQYKDGISTYEFVRATHEADYRTHQAEPVAGRTFGFNGIGRLTEVALHMPTRYTLHDQSSQYKESPSFFQGLMGVPDRGPVDLAAFQRETEELATAFENNGIKVHWVDYPEEPANPYGPLMGHVFLSWGSIWRGGSVISRFGFLPGMVGVSEYLAKWAWNTLNIPPLVAITEGAMEPGACNMIADEVLVTCLSASYDQRGTDQLVAAISKTSGTEEFHNLQLRPAVEGFFNKATGACAHPDININAIDVGKLVVSPAALDWDARTWLYDNNFELIEADPDEQREFLAPCNVLLLEPGKVIAHADCHKTNQKIRDAGVEVIEVTGTEIRKACGGIKCRVMQINREPGPTLADVRNRVWR
notes: 2-nitroimidazole nitrohydrolase A (NnhA) of Mycobacterium sp; JS330, UniProt F4ZCI3.1; electron density from R11 to R379 at the C-terminus; Variant found by four rounds of directed evolution (error-prone PCR); also called NnhA-T2I-G14D-K73R; soluble T2I, G14D, K73R NnhA mutant; source: no nickel column; not shown: His6, N-terminal, kept
stoichiometry N [1]: 6 | stoichiometry N [2]: ~4

B2: NnhA-T2I-G14D-K73R-C357A (enzyme)
chain: B1 chain with C357A
notes: 2-nitroimidazole nitrohydrolase A (NnhA) of Mycobacterium sp; JS330, UniProt F4ZCI3.1; also called NnhA C357A; source: no nickel column
stoichiometry N [1]: 6
